In paper PMC9372627:

Tests used:
Trio_(1284-2638) (human) = Trio_(1284-2638) (human) (UniProt O75962)

Gαq·GDP·AlF4^- (from UniProt P21279 1-359) (natural protein)
RhoA GEF activity (FRET-based nucleotide exchange assay with MANT-GTP), enhancement by 200 nM Gαq·GDP·AlF4^- (TrioC (human)): 2.5 fold | RhoA GEF activity (FRET-based nucleotide exchange assay with MANT-GTP), enhancement by 200 nM Gαq·GDP·AlF4^- (Trio_(1284-2638) (human)): 2.5 fold
